Here are results for one molecule from publication PMC9122904, “Insights into the client protein release mechanism of the ATP-independent chaperone Spy” (Nature Communications, 2022).

Holding throughout (assay): BLI; Octet RED96; client biotinylated and loaded on streptavidin sensors; Spy or Spy variant in solution at 0.25, 0.5, 1, 1.5 and 2 μM; 40 mM HEPES, 150 mM NaCl, pH 7.5; Kd calculated as koff/kon
What all share (conditions): both partners purified

Test [1] concerns the target T1, Spy_(29-124) R43D (UniProt P77754 52-147, R43D).
T1 construct: source: E. coli BL21 (DE3), purified (Ni-NTA, cation exchange, SEC); not shown: His6, N-terminal, cleaved; SUMO, N-terminal, cleaved
T1 sequence (looked up): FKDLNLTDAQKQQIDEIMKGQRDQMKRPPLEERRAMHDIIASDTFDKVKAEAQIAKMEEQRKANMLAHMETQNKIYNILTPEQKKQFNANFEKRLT

The target in test [2] is T1, Spy_(29-124) R43D. This is another data set of the same source.
The target of the next test is T2, Spy_(29-124) R50D (UniProt P77754 52-147, R50D).
T2 construct: source: E. coli BL21 (DE3), purified (Ni-NTA, cation exchange, SEC); not shown: His6, N-terminal, cleaved; SUMO, N-terminal, cleaved
T2 sequence (looked up): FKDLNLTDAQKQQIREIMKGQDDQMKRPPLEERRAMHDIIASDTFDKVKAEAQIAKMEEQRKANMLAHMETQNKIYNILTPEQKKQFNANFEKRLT

The target of another test is T3, Spy_(29-124) K54D R55D (UniProt P77754 52-147, K54D | R55D).
T3 construct: source: E. coli BL21 (DE3), purified (Ni-NTA, cation exchange, SEC); not shown: His6, N-terminal, cleaved; SUMO, N-terminal, cleaved
T3 sequence (looked up): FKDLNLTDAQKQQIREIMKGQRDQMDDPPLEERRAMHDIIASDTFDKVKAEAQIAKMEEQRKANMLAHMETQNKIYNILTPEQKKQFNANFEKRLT

The target of a further test is T4, Spy_(29-124) R61D R62D (UniProt P77754 52-147, R61D | R62D).
T4 construct: source: E. coli BL21 (DE3), purified (Ni-NTA, cation exchange, SEC); not shown: His6, N-terminal, cleaved; SUMO, N-terminal, cleaved
T4 sequence (looked up): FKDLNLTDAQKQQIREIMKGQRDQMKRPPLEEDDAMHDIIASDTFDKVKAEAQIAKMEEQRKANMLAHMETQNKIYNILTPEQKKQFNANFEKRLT

A further test addresses T5, Spy_(29-124) K75D (UniProt P77754 52-147, K75D).
T5 construct: source: E. coli BL21 (DE3), purified (Ni-NTA, cation exchange, SEC); not shown: His6, N-terminal, cleaved; SUMO, N-terminal, cleaved
T5 sequence (looked up): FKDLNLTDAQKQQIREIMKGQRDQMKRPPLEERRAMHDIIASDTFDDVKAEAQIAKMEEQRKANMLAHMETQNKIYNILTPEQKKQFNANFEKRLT

A further test concerns the target T6, Spy_(29-124) R89D (UniProt P77754 52-147, R89D).
T6 construct: source: E. coli BL21 (DE3), purified (Ni-NTA, cation exchange, SEC); not shown: His6, N-terminal, cleaved; SUMO, N-terminal, cleaved
T6 sequence (looked up): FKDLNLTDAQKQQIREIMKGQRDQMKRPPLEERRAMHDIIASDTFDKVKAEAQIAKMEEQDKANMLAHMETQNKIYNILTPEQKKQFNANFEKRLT

The target in the next test is T7, Spy_(29-124) H96D (UniProt P77754 52-147, H96D).
T7 construct: source: E. coli BL21 (DE3), purified (Ni-NTA, cation exchange, SEC); not shown: His6, N-terminal, cleaved; SUMO, N-terminal, cleaved
T7 sequence (looked up): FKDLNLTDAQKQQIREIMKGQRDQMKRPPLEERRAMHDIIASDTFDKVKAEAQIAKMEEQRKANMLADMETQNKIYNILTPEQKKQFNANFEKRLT

Another test has as its target T8, Spy_(29-124) K121D R122D (UniProt P77754 52-147, K121D | R122D).
T8 construct: source: E. coli BL21 (DE3), purified (Ni-NTA, cation exchange, SEC); not shown: His6, N-terminal, cleaved; SUMO, N-terminal, cleaved
T8 sequence (looked up): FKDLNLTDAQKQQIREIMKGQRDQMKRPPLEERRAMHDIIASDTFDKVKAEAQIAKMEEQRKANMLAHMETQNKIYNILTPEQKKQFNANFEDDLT

The target in a further test is T9, Spy D26E (UniProt P77754 24-161, D26E).
T9 construct: source: E. coli BL21 (DE3), purified (Ni-NTA, cation exchange, SEC); not shown: His6, N-terminal, cleaved; SUMO, N-terminal, cleaved
T9 sequence (looked up): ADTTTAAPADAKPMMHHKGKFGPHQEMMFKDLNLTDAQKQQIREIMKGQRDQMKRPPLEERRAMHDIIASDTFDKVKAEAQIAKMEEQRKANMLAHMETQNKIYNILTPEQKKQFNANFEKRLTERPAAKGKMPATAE

The next test addresses T10, Spy D26K (UniProt P77754 24-161, D26K).
T10 construct: source: E. coli BL21 (DE3), purified (Ni-NTA, cation exchange, SEC); not shown: His6, N-terminal, cleaved; SUMO, N-terminal, cleaved
T10 sequence (looked up): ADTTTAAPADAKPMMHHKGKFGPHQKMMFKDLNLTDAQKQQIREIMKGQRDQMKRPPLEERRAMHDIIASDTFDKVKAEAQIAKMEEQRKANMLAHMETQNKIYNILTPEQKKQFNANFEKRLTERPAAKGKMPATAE

B1: Im7 H40W L53A I54A (natural protein)
chain: MELKNSISDYTEAEFVQLLKEIEKENVAATDDVLDVLLEWFVKITEHPDGTDAAYYPSDNRDDSPEGIVKEIKEWRAANGKPGFKQG
modifications: biotin (EZ-link NHS-biotin, 1:1 molar ratio of biotin to protein)
notes: Im7 (colicin E7 immunity protein) with H40W L53A I54A; Spy was made with an N-terminal His6-SUMO tag that was cleaved; also called Im7AAW; partially folded client; source: purified by a similar procedure to Spy
For the molecule B1, the kon with Spy_(29-124) R43D [1] is 196000 M⁻¹ s⁻¹; with Spy D26E it was 306000 M⁻¹ s⁻¹; with Spy D26K, 317000 M⁻¹ s⁻¹. Further, the koff in the test with Spy_(29-124) R43D [2] was 0.601 s⁻¹; with Spy_(29-124) R50D, 0.477 s⁻¹; with Spy_(29-124) K54D R55D, 0.239 s⁻¹; with Spy_(29-124) R61D R62D it was 0.262 s⁻¹; with Spy_(29-124) K75D it was 0.0712 s⁻¹; with Spy_(29-124) R89D, 0.125 s⁻¹. The koff in the test with Spy_(29-124) H96D is 0.234 s⁻¹; in the test with Spy_(29-124) K121D R122D, 0.349 s⁻¹.
